Experiment [1] concerns the target T1, soluble DR 1 (DRB1*0101) class II molecules purified from HOM-2 EBV-B cells (human), P01903.
T1 chain 1: not shown
T1 chain 2: not shown
The experiment is described as follows: peptide competition ELISA, soluble DR 1, biotinylated indicator GFK(A)7. A general note: ELISA stands for enzyme-linked immunosorbent assay.

Experiment [2] concerns the target T2, soluble DR 7 (DRB1*0701) class II molecules purified from EKR EBV-B cells (human), P01903.
T2 chain 1: not shown
T2 chain 2: not shown
The experiment is described as follows: peptide competition ELISA, soluble DR 7, biotinylated indicator GFK(A)7, pH 5.

The target of experiment [3] is T3, soluble DR 2a (DRB5*0101) molecules isolated from L cells transfectant L416.3 (human), P01903.
T3 chain 1: not shown
T3 chain 2: not shown

The target in experiment [4] is T4, soluble DR4 (DRB1*0401) class II molecules purified from BSM or PREISS EBV-B cells (human), P01903.
T4 chain 1: not shown
T4 chain 2: not shown
The experiment is described as follows: peptide competition ELISA, soluble DR4, biotinylated indicator GFK(A)7.

Experiment [5] addresses T5, soluble DR 8 (DRB1*0801) class II molecules purified from BM9 EBV-B cells (human), P01903.
T5 chain 1: not shown
T5 chain 2: not shown
The experiment can be described thus: peptide competition ELISA, soluble DR 8, biotinylated indicator GYR(A)6L.

Experiment [6] concerns the target soluble DR 11 (DRB1*1101) class II molecules purified from SWEIG EBV-B cells (human), P01903. The experiment is described as follows: peptide competition ELISA, soluble DR 11, biotinylated indicator TT831-843.
The target of experiment [7] is T6, soluble DR 3 (DRB1*0301) class II molecules purified from WT49 EBV-B cells (human), P01903.
T6 chain 1: not shown
T6 chain 2: not shown
The experiment is described as follows: peptide competition ELISA, soluble DR 3, biotinylated indicator IAYD(A)5.

The target in experiment [8] is T4, soluble DR4 (DRB1*0401) class II …. The experiment is described as follows: peptide competition ELISA, soluble DR 4, biotinylated indicator UD4.
In experiment [9] the target is T7, DR molecule DRA1*0101/DRB1*0401 on transfected murine L cells (human), P01903.
T7 chain 1: not shown
T7 chain 2: not shown
The experiment is described as follows: FACS, biotinylated peptide 100 µg/ml on DR-transfected murine L cells.

For experiment [10], the target named is T8, DR molecule DRA1*0101/DRB1*0701 on transfected murine L cells (human), P01903.
T8 chain 1: not shown
T8 chain 2: not shown
The description is as above.

Where no end group is shown, it is not given here. Some results are limits rather than exact numbers.

By IC50 is commonly meant the midpoint of a concentration-inhibition curve. Low readings indicate greater potency in that assay, high ones weaker potency in that assay. With DPNANPNVDPNANPNV (modifications not checked), the IC50 in experiment [1], in experiment [2], in experiment [3], in [4], in experiment [5] and in experiment [6] was over 100 µM in each case. For the same molecule, the IC50 in experiment [7] and in [8] was over 100 µM in each case.
As to DPNANPNVDPNANPNV (not fully specified (N-terminus)) [NH2 terminal biotinylated T1 peptide], the results for the MFC (mean fluorescence channel) in experiment [9] and in [10] were 18.9 MFC and 35.7 MFC, respectively.
